The values below come from patent US20060014937A1.

In the assay the target is HBV S-surface antigen (International Enzyme Inc., USA) adr type (hepatitis B virus (adr type)). Put plainly: competition ELISA in solution (Friguet method): antibody pre-mixed with 10^-11 to 10^-6 M antigen, free antibody caught on antigen-coated plate. On the technique in general: An ELISA detects its analyte on a solid surface through an enzyme-linked reagent.

B1: humanized antibody YHB1110-13 (antibody, V domains shown)
VH: QVQLKQSGPGLVKPSQTLSLTCTVSGFSLSTYGVQWVRQPPGKGLEWLGVIWSGGNTDYNAAFISRVTISKDTSKNQVSLKLSSVTAADTAVYYCARARYFDVWGAGTTVTVSS
VL: QAVVTQEPSLTVSPGGTVTLTCRSSTGAITTNNFANWFQQKPGQAFRGLIGDTNNRVPGVPARFSGSLLGNKAALTITGAQPEDEAEYYCALWYNNWVFGGGTKLTVLG
In the case of B1, the Ka came to 1e+08 M⁻¹.

B2: humanized antibody YHB1110-15 (antibody, V domains shown)
VH: QVQLKQSGPGLVKPSQTLSLTCTVSGFSLSTYGVQWVRQPPGKGLEWLGVIWSGGNTDYNAAFISRVTISKDTSKNQVSLKLSSVTAADTAVYYCARARYFDVWGAGTTVTVSS
VL: QAVVTQEPSLTVSPGGTVTLTCRSSTGAITTNNFANWFQQKPGQAFRGLIGDTNNRVPGVPARFSGSLIGDKAALTITGAQPEDEAEYYCALWYNNWVFGGGTKLTVLG
Regarding B2, the Ka is 7e+07 M⁻¹.
